# Reference: patent EP1117419B1 (The University Of Southern California, dated 2010)
# B1: contortrostatin (CN), native homodimer purified from Agkistrodon contortrix contortrix venom (ligand)
# chain: DAPANPCCDAATCKLTTGSQCADGLCCDQCKFMKEGTVCRRARGDDLDDYCNGISAGCPRNPFHA
# Tests used:
# [1] = target: binding sites on unactivated human platelets; experiment: Scatchard analysis of CN binding to unactivated human platelets
# [2] = target: human platelet membrane glycoprotein (GP)IIb/IIIa on human platelets (platelet rich plasma) (human, UniProt P08514 32-1039; P05106 27-788)
# [3] = target: canine platelet (GP)IIb/IIIa on canine platelets (platelet rich plasma) (canine, UniProt Q9TUN8 32-1036; A0A8I3PMU9 158-919)
binder,measurement,setting,value
B1,Kd,[1],37 nM
same,IC50,[2],0.4 µg/mL
same,IC50,[3],0.24 µg/mL
